The labels stand for the following.
B1: KCNAB2 (parent)
chain: YVDVVFANRPDPNTPMEETVRAMT
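Further: lentivirally expressed fusions sorted by FACS into six bins by GFP to DsRed ratio, PSI derived from sequencing read proportions per bin multiplied by bin number.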

In this series the parent is B1. Nature of the series: protein stability index of a GFP-peptide fusion (GPS, HEK-293T) (PSI 1-6); higher = more stable. To be noted: c terminus: a fixed tail appended.
Consider HVDVVFANRPDPNTPMEETVRAMT [Y1H], for which the protein stability index amounted to 4.05.
As to WVDVVFANRPDPNTPMEETVRAMT [Y1W], the protein stability index came out at 1.74.
Then AVDVVFANRPDPNTPMEETVRAMT [Y1A], with 4.19; and KVDVVFANRPDPNTPMEETVRAMT [Y1K], with 3.77.
Regarding PVDVVFANRPDPNTPMEETVRAMT [Y1P], the protein stability index was found to be 4.42.
On to YLDVVFANRPDPNTPMEETVRAMT [V2L], for which the protein stability index stood at 3.09.
The same measure for YPDVVFANRPDPNTPMEETVRAMT [V2P]: 3.69; for YQDVVFANRPDPNTPMEETVRAMT [V2Q]: 3.32; for YMDVVFANRPDPNTPMEETVRAMT [V2M]: 3.61.
Take YTDVVFANRPDPNTPMEETVRAMT [V2T]: the protein stability index stood at 2.91.
Then YEDVVFANRPDPNTPMEETVRAMT [V2E], with 4.98.
On to YADVVFANRPDPNTPMEETVRAMT [V2A], for which the protein stability index is 2.96.
Then YHDVVFANRPDPNTPMEETVRAMT [V2H], with 2.39; and YFDVVFANRPDPNTPMEETVRAMT [V2F], with 2.81; and YGDVVFANRPDPNTPMEETVRAMT [V2G], with 3.76.
Then YSDVVFANRPDPNTPMEETVRAMT [V2S], with 4.24; and YYDVVFANRPDPNTPMEETVRAMT [V2Y], with 3.07.
Regarding YRDVVFANRPDPNTPMEETVRAMT [V2R], the protein stability index was 4.13.
The same measure for YDDVVFANRPDPNTPMEETVRAMT [V2D]: 4.91; for YWDVVFANRPDPNTPMEETVRAMT [V2W]: 2.5.
Then YKDVVFANRPDPNTPMEETVRAMT [V2K], with 4.33; and YCDVVFANRPDPNTPMEETVRAMT [V2C], with 2.34.
Then YNDVVFANRPDPNTPMEETVRAMT [V2N], with 4.51; and YIDVVFANRPDPNTPMEETVRAMT [V2I], with 2.07; and YVDFVFANRPDPNTPMEETVRAMT [V4F], with 2.3.
Turning to YVDEVFANRPDPNTPMEETVRAMT [V4E], the protein stability index was 2.07.
Consider YVDSVFANRPDPNTPMEETVRAMT [V4S], for which the protein stability index came to 1.67.
Consider YVDRVFANRPDPNTPMEETVRAMT [V4R], for which the protein stability index stood at 2.52.
The same measure for YVDYVFANRPDPNTPMEETVRAMT [V4Y]: 1.85; for YVDDVFANRPDPNTPMEETVRAMT [V4D]: 2.26; for YVDAVFANRPDPNTPMEETVRAMT [V4A]: 1.98.
The same measure for YVDWVFANRPDPNTPMEETVRAMT [V4W]: 2.33; for YVDQVFANRPDPNTPMEETVRAMT [V4Q]: 1.71.
The same measure for YVDLVFANRPDPNTPMEETVRAMT [V4L]: 2.66; for YVDPVFANRPDPNTPMEETVRAMT [V4P]: 1.87.
For the variant YVDCVFANRPDPNTPMEETVRAMT [V4C], the protein stability index worked out at 1.51.
Then YVDHVFANRPDPNTPMEETVRAMT [V4H], with 1.39; and YVDIVFANRPDPNTPMEETVRAMT [V4I], with 1.83; and YVDKVFANRPDPNTPMEETVRAMT [V4K], with 2.31.
Take YVDTVFANRPDPNTPMEETVRAMT [V4T]: the protein stability index amounted to 2.12.
For the variant YVDGVFANRPDPNTPMEETVRAMT [V4G], the protein stability index came out at 3.05.
The same measure for YVDMVFANRPDPNTPMEETVRAMT [V4M]: 2.87; for YVDNVFANRPDPNTPMEETVRAMT [V4N]: 1.64; for YVDVVHANRPDPNTPMEETVRAMT [F6H]: 2.42.
With YVDVVKANRPDPNTPMEETVRAMT [F6K], the protein stability index was 2.66.
The same measure for YVDVVQANRPDPNTPMEETVRAMT [F6Q]: 3.1; for YVDVVMANRPDPNTPMEETVRAMT [F6M]: 2.3.
The same measure for YVDVVGANRPDPNTPMEETVRAMT [F6G]: 3.16; for YVDVVEANRPDPNTPMEETVRAMT [F6E]: 3.63; for YVDVVNANRPDPNTPMEETVRAMT [F6N]: 3.01.
Take YVDVVDANRPDPNTPMEETVRAMT [F6D]: the protein stability index stood at 4.17.
Then YVDVVAANRPDPNTPMEETVRAMT [F6A], with 2.79; and YVDVVCANRPDPNTPMEETVRAMT [F6C], with 2.18; and YVDVVIANRPDPNTPMEETVRAMT [F6I], with 1.99.
Then YVDVVPANRPDPNTPMEETVRAMT [F6P], with 2.09.
As for YVDVVLANRPDPNTPMEETVRAMT [F6L], the protein stability index came to 2.15.
Consider YVIVVFANRPDPNTPMEETVRAMT [D3I], for which the protein stability index was found to be 4.3.
On to YVKVVFANRPDPNTPMEETVRAMT [D3K], for which the protein stability index came out at 2.13.
Consider YVSVVFANRPDPNTPMEETVRAMT [D3S], for which the protein stability index was 2.99.
For YVTVVFANRPDPNTPMEETVRAMT [D3T], the protein stability index came out at 1.82.
For YVVVVFANRPDPNTPMEETVRAMT [D3V], the protein stability index is 2.48.
The same measure for YVCVVFANRPDPNTPMEETVRAMT [D3C]: 2.31; for YVMVVFANRPDPNTPMEETVRAMT [D3M]: 3.61.
The same measure for YVQVVFANRPDPNTPMEETVRAMT [D3Q]: 1.91; for YVRVVFANRPDPNTPMEETVRAMT [D3R]: 2.28; for YVWVVFANRPDPNTPMEETVRAMT [D3W]: 2.8.
With YVFVVFANRPDPNTPMEETVRAMT [D3F], the protein stability index was found to be 2.71.
The same measure for YVYVVFANRPDPNTPMEETVRAMT [D3Y]: 2.34; for YVAVVFANRPDPNTPMEETVRAMT [D3A]: 2; for YVNVVFANRPDPNTPMEETVRAMT [D3N]: 2.01.
The same measure for YVHVVFANRPDPNTPMEETVRAMT [D3H]: 2.07; for YVEVVFANRPDPNTPMEETVRAMT [D3E]: 1.87.
For the variant YVPVVFANRPDPNTPMEETVRAMT [D3P], the protein stability index was 1.2.
The same measure for YVLVVFANRPDPNTPMEETVRAMT [D3L]: 2.51; for YVGVVFANRPDPNTPMEETVRAMT [D3G]: 2.85; for YVDVMFANRPDPNTPMEETVRAMT [V5M]: 3.01.
Then YVDVKFANRPDPNTPMEETVRAMT [V5K], with 1.82.
For YVDVIFANRPDPNTPMEETVRAMT [V5I], the protein stability index is 2.09.
Then YVDVQFANRPDPNTPMEETVRAMT [V5Q], with 1.65; and YVDVPFANRPDPNTPMEETVRAMT [V5P], with 2.01; and YVDVCFANRPDPNTPMEETVRAMT [V5C], with 1.9.
The same measure for YVDVFFANRPDPNTPMEETVRAMT [V5F]: 3.07; for YVDVLFANRPDPNTPMEETVRAMT [V5L]: 2.2; for YVDVEFANRPDPNTPMEETVRAMT [V5E]: 2.5.
Turning to YVDVYFANRPDPNTPMEETVRAMT [V5Y], the protein stability index was found to be 2.03.
Turning to YVDVDFANRPDPNTPMEETVRAMT [V5D], the protein stability index was 2.13.
Turning to YVDVGFANRPDPNTPMEETVRAMT [V5G], the protein stability index stood at 2.49.
The same measure for YVDVHFANRPDPNTPMEETVRAMT [V5H]: 2.09.
For YVDVAFANRPDPNTPMEETVRAMT [V5A], the protein stability index came to 2.29.
The same measure for YVDVSFANRPDPNTPMEETVRAMT [V5S]: 1.93; for YVDVNFANRPDPNTPMEETVRAMT [V5N]: 2.06.
For YVDVRFANRPDPNTPMEETVRAMT [V5R], the protein stability index came to 2.45.
Then YVDVWFANRPDPNTPMEETVRAMT [V5W], with 1.59; and YVDVTFANRPDPNTPMEETVRAMT [V5T], with 2.12.

The values above are taken from the supplement of paper PMC10567573.
